Measurements: publication PMC10397247

Columns and labels:
P6 = target: T1, P6; assay: two-hybrid library CC1;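 also: natural log of median RNA to DNA barcode read ratio; higher means stronger binding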
T1 chain: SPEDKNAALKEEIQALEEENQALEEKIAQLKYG

P6mS = target: T2, P6mS; assay: two-hybrid library CC1; settings: mean of both orientations;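 also: natural log of median RNA to DNA barcode read ratio; higher means stronger binding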
T2 chain: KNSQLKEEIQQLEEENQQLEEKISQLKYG

P8 = target: T3, P8; assay: two-hybrid library CC1; settings: mean of both orientations;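 also: natural log of median RNA to DNA barcode read ratio; higher means stronger binding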
T3 chain: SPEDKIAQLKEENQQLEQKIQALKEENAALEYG

P7 = target: T4, P7; assay: two-hybrid library CC1; settings: mean of both orientations;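 also: natural log of median RNA to DNA barcode read ratio; higher means stronger binding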
T4 chain: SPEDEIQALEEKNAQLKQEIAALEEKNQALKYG

P7mS = target: T5, P7mS; assay: two-hybrid library CC1; settings: mean of both orientations;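 also: natural log of median RNA to DNA barcode read ratio; higher means stronger binding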
T5 chain: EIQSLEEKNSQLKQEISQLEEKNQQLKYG

P8mS = target: T6, P8mS; assay: two-hybrid library CC1; settings: mean of both orientations;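 also: natural log of median RNA to DNA barcode read ratio; higher means stronger binding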
T6 chain: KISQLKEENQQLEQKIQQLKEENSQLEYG

P6SC2 = target: T7, P6SC2; assay: two-hybrid library CC1; settings: mean of both orientations
T7 chain: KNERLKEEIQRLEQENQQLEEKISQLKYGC

P6SC1 = target: T8, P6SC1; assay: two-hybrid library CC1; settings: mean of both orientations
T8 chain: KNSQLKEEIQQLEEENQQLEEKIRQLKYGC

P9 = target: T9, P9; assay: two-hybrid library CC1; settings: mean of both orientations
T9 chain: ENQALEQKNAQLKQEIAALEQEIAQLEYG

4H446-AA = target: T10, 4H446-AA; assay: two-hybrid library CCmax; settings: mean of both orientations
T10 chain: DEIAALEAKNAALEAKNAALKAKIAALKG

4H3777-AA = target: T11, 4H3777-AA; assay: two-hybrid library CCmax; settings: mean of both orientations
T11 chain: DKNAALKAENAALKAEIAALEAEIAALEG

4H3094-AA = target: T12, 4H3094-AA; assay: two-hybrid library CCmax; settings: mean of both orientations
T12 chain: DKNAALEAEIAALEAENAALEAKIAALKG

4H432-AA = target: T13, 4H432-AA; assay: two-hybrid library CCmax; settings: mean of both orientations
T13 chain: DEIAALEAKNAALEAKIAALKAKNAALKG

4H341-AA = target: T14, 4H341-AA; assay: two-hybrid library CCmax; settings: mean of both orientations
T14 chain: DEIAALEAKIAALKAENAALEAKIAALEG

4H3619-AA = target: T15, 4H3619-AA; assay: two-hybrid library CCmax; settings: mean of both orientations
T15 chain: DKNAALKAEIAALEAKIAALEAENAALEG

4H3449-AA = target: T16, 4H3449-AA; assay: two-hybrid library CCmax; settings: mean of both orientations
T16 chain: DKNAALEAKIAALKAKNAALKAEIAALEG

4H3414-AA = target: T17, 4H3414-AA; assay: two-hybrid library CCmax; settings: mean of both orientations
T17 chain: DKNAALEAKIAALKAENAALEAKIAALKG

4H3629-AA = target: T18, 4H3629-AA; assay: two-hybrid library CCmax; settings: mean of both orientations
T18 chain: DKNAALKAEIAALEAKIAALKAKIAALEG

4H3915-AA = target: T19, 4H3915-AA; assay: two-hybrid library CCmax; settings: mean of both orientations
T19 chain: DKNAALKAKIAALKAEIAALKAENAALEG

4H3129-AA = target: T20, 4H3129-AA; assay: two-hybrid library CCmax; settings: mean of both orientations
T20 chain: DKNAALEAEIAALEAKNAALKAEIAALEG

4H3049-AA = target: T21, 4H3049-AA; assay: two-hybrid library CCmax; settings: mean of both orientations
T21 chain: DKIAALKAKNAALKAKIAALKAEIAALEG

4H3969-AA = target: T22, 4H3969-AA; assay: two-hybrid library CCmax; settings: mean of both orientations
T22 chain: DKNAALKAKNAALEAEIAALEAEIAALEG

4H483-AA = target: T23, 4H483-AA; assay: two-hybrid library CCmax; settings: mean of both orientations
T23 chain: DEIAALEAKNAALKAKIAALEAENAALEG

4H2760-AA = target: T24, 4H2760-AA; assay: two-hybrid library CCmax; settings: mean of both orientations
T24 chain: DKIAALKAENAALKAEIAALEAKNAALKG

4H3974-AA = target: T25, 4H3974-AA; assay: two-hybrid library CCmax; settings: mean of both orientations
T25 chain: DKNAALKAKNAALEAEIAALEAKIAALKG

4H2604-AA = target: T26, 4H2604-AA; assay: two-hybrid library CCmax; settings: mean of both orientations
T26 chain: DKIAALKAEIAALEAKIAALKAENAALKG

4H2699-AA = target: T27, 4H2699-AA; assay: two-hybrid library CCmax; settings: mean of both orientations
T27 chain: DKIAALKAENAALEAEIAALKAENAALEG

4H464-AA = target: T28, 4H464-AA; assay: two-hybrid library CCmax; settings: mean of both orientations
T28 chain: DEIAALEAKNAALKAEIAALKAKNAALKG

4H63-AA = target: T29, 4H63-AA; assay: two-hybrid library CCmax; settings: mean of both orientations
T29 chain: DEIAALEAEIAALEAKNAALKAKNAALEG

4H3595-AA = target: T30, 4H3595-AA; assay: two-hybrid library CCmax; settings: mean of both orientations
T30 chain: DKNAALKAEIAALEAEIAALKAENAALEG

4H2903-AA = target: T31, 4H2903-AA; assay: two-hybrid library CCmax; settings: mean of both orientations
T31 chain: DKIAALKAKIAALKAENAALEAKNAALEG

4H2621-AA = target: T32, 4H2621-AA; assay: two-hybrid library CCmax; settings: mean of both orientations
T32 chain: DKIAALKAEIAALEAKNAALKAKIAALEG

4H2947-AA = target: T33, 4H2947-AA; assay: two-hybrid library CCmax; settings: mean of both orientations
T33 chain: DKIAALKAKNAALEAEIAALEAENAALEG

4H3782-AA = target: T34, 4H3782-AA; assay: two-hybrid library CCmax; settings: mean of both orientations
T34 chain: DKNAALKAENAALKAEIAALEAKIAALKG

4H380-AA = target: T35, 4H380-AA; assay: two-hybrid library CCmax; settings: mean of both orientations
T35 chain: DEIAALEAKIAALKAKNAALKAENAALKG

4H2774-AA = target: T36, 4H2774-AA; assay: two-hybrid library CCmax; settings: mean of both orientations
T36 chain: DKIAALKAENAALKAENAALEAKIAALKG

4H3939-AA = target: T37, 4H3939-AA; assay: two-hybrid library CCmax; settings: mean of both orientations
T37 chain: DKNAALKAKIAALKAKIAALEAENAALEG

4H2580-AA = target: T38, 4H2580-AA; assay: two-hybrid library CCmax
T38 chain: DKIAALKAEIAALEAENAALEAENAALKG

4H324-AA = target: T39, 4H324-AA; assay: two-hybrid library CCmax; settings: mean of both orientations
T39 chain: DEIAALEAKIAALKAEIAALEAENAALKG

4H2728-AA = target: T40, 4H2728-AA; assay: two-hybrid library CCmax; settings: mean of both orientations
T40 chain: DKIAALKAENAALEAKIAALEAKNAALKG

4H2961-AA = target: T41, 4H2961-AA; assay: two-hybrid library CCmax; settings: mean of both orientations
T41 chain: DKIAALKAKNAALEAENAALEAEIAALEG

4H619-bN = target: T42, 4H619-bN; assay: two-hybrid library CCNG1
T42 chain: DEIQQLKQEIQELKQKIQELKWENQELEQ

4H3974-bN = target: T43, 4H3974-bN; assay: two-hybrid library CCNG1
T43 chain: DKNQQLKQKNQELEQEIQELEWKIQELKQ

4H584-bN = target: T44, 4H584-bN; assay: two-hybrid library CCNG1
T44 chain: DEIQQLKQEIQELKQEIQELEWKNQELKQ

4H3631-bN = target: T45, 4H3631-bN; assay: two-hybrid library CCNG1
T45 chain: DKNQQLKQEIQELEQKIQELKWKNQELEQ

4H3638-bN = target: T46, 4H3638-bN; assay: two-hybrid library CCNG1
T46 chain: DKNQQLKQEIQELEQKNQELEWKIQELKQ

4H850-bN = target: T47, 4H850-bN; assay: two-hybrid library CCNG1
T47 chain: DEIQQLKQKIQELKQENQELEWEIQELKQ

4H3414-bN = target: T48, 4H3414-bN; assay: two-hybrid library CCNG1
T48 chain: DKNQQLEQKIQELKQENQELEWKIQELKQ

4H3817-bN = target: T49, 4H3817-bN; assay: two-hybrid library CCNG1
T49 chain: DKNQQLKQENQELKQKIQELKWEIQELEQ

4H570-bN = target: T50, 4H570-bN; assay: two-hybrid library CCNG1
T50 chain: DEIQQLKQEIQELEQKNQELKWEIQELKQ

4H906-bN = target: T51, 4H906-bN; assay: two-hybrid library CCNG1
T51 chain: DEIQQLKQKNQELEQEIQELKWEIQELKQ

Binder SPEDKNAALKEEIQALEEENQALEEKIAQLKYG [P6] has an interaction score (P6) of -2.71, an interaction score (P6mS) of -2.76 and an interaction score (P8) of -2.37. It also gave an interaction score (P7) of -0.929, an interaction score (P7mS) of -2.6 and an interaction score (P8mS) of -2.62. It also gave an interaction score (P6SC2) of -2.56, an interaction score (P6SC1) of -2.74 and an interaction score (P9) of -1.98.

DKIAALKAEIAALEAENAALEAENAALKG [4H2580-AA] was tested, and the interaction score (4H446-AA) was -1.11, the interaction score (4H3777-AA) was -1.49 and the interaction score (4H3094-AA) was -1.36. It also gave an interaction score (4H432-AA) of -1.04, an interaction score (4H341-AA) of 0.477 and an interaction score (4H3619-AA) of -1.26. The interaction score (4H3449-AA) was 0.308, the interaction score (4H3414-AA) was -1.09 and the interaction score (4H3629-AA) was -0.787. The interaction score (4H3915-AA) was -0.741, the interaction score (4H3129-AA) was -1.21 and the interaction score (4H3049-AA) was -0.107. The interaction score (4H3969-AA) was -1.28, the interaction score (4H483-AA) was -1.33 and the interaction score (4H2760-AA) was -1.47. For the same binder, the interaction score (4H3974-AA) was -1.2, the interaction score (4H2604-AA) was 1.41 and the interaction score (4H2699-AA) was -1.81. For the same binder, the interaction score (4H464-AA) was -0.738, the interaction score (4H63-AA) was 0.964 and the interaction score (4H3595-AA) was -1.29. For the same binder, the interaction score (4H2903-AA) was -0.221, the interaction score (4H2621-AA) was -0.357 and the interaction score (4H2947-AA) was -1.82. It also gave an interaction score (4H3782-AA) of -1.52, an interaction score (4H380-AA) of 1.77 and an interaction score (4H2774-AA) of -1.28. The interaction score (4H3939-AA) was -0.303, the interaction score (4H2580-AA) was 0.179 and the interaction score (4H324-AA) was 1.93. For the same binder, the interaction score (4H2728-AA) was -1.69 and the interaction score (4H2961-AA) was -1.82.

Binder DKNQQLEQKIQELKQENQELEWKIQELKQ [4H3414-bN] has an interaction score (4H619-bN) of -2.07, an interaction score (4H3974-bN) of -0.178 and an interaction score (4H584-bN) of -1.04. The interaction score (4H3631-bN) was -1.25, the interaction score (4H3638-bN) was -1.41 and the interaction score (4H850-bN) was 0.132. For the same binder, the interaction score (4H3414-bN) was -0.0983, the interaction score (4H3817-bN) was -0.982 and the interaction score (4H570-bN) was -0.223. For the same binder, the interaction score (4H906-bN) was -1.04.
